Values of other authors in PMC4567469.

Target: Ran (Homo sapiens) (UniProt P62826)

Leader protein (LE) (from UniProt P03304)
Kd: 3 nM
